Tested on: T1, Cc1cc(=O)oc2cc(NC(=O)[C@H](CCCNC(=N)N)NC(=O)[C@H](C)NC(=O)[C@H](CCC(N)=O)NC(=O)OC(C)(C)C)ccc12
T1 construct: purchased R&D Systems 4776-SE-010
Test: Km determination of fluorogenic substrate with hepsin
Format: biochemical, human
Description: In black 384 well plates (Corning #3575), 12.5 nM HGFA was mixed with various amounts of Boc-QLR-AMC and 1 nM matriptase and 0.3 nM hepsin were mixed with various amounts of Boc-QAR-AMC. Changes in fluorescence (excitation at 380 nm and emission at 460 nn) were measured at room temperature over time in a Biotek Synergy 2 plate reader (Winnoski, Vt.). Using plots of the mean reaction velocity versus substrate concentration and the Michaelis-Menten enzyme kinetics equation within GraphPad Prism version 6.04 for Windows (GraphPad Software, San Diego, Calif., www.graphpad.com), the reaction Vmax and subsequent Km for each of the substrates were determined.

Chain of hepsin (Homo sapiens) (chain, as listed by the source): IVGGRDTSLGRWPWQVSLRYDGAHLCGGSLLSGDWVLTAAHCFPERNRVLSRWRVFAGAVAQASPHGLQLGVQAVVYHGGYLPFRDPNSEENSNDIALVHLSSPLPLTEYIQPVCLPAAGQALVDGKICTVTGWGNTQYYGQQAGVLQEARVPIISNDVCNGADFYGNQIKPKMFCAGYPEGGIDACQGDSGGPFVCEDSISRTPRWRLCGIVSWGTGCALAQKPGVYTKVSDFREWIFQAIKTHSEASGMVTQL

Substance: hepsin (Homo sapiens)
- Km: 156 µM
